Test results from patent publication US20250076311A1 (Chugai, published 2025).
Positions count from the first letter of the chain named.

B1: M103205H795-MY285 (heavy chain) with M103202L889-SK1 (light chain) (antibody, human IgG1, kappa, name in EU numbering)
heavy: QVTLKESGPVLVKPTETLTLTCTVSGIDLSHDDISWVRQAPGKGLEWVGIISYAGSTYYASWAKGRLTISKDTSKNQVVLTMTNMDPVDTATYYCARGVPAYSHGGDLWGQGTLVTVSSASTKGPSVFPLAPSSKSTSGGTAALGCLVKDYFPEPVTVSWNSGALTSGVHTFPAVLQSSGLYSLSSVVTVPSSSLGTQTYICNVNHKPSNTKVDKKVEPKSCDKTHTCPPCPAPELLIGPSVFLFPPKPKDTLMISRTPEVTCVVVDVSDEDPEVKFNWYVDGVEVHNAKTKPREELYNSTYRVVSVLTVLHQDWLNGKEYKCKVSNKALPKPIEKTISKAKGQPREPQVYTLPPSREEMTKNQVSLTCLVKGFYPSDIAVEWESNGQPENNYKTTPPVLDSDGSFFLYSKLTVDKSRWQQGNVFSCSVMHEALHNHYTQKSLSLSP
light: DIVMTQSPATLSLSPGERATLSCTSSQSVYHANWLSWFQQKPGQPPKLLIYWASTLAYGVPSRFSGSGSGTDFTLTISSLQPEDAATYYCAGGYGGGRYAFGQGTKVEIKRTVAAPSVFIFPPSDEQLKSGTASVVCLLNNFYPREAKVQWKVDNALQSGNSQESVTEQDSKDSTYSLSSTLTLSKADYEKHKVYACEVTHQGLSSPVTKSFNRGEC
notes: Substitutions introduced into M103205H795-SG1; positions in EU numbering
B2: M103205H795-MY219 (heavy chain) with M103202L889-SK1 (light chain) (antibody, human IgG1, kappa, name in EU numbering)
heavy: B1 heavy with I238G, G239Y, L297Q
light: B1 light
notes: as for B1
B3: M103205H795-MY143 (heavy chain) with M103202L889-SK1 (light chain) (antibody, human IgG1, kappa, name in EU numbering)
heavy: B1 heavy with I238S, D270E, L297Q, K332A, P398M
light: B1 light
notes: as for B1
B4: M103205H795-MY274 (heavy chain) with M103202L889-SK1 (light chain) (antibody, human IgG1, kappa, name in EU numbering)
heavy: B1 heavy with I238T, L297Q, P398K
light: B1 light
notes: as for B1
B5: M103205H795-MY228 (heavy chain) with M103202L889-SK1 (light chain) (antibody, human IgG1, kappa, name in EU numbering)
heavy: B1 heavy with I238G, G239Y
light: B1 light
notes: as for B1
B6: M103205H795-MY213 (heavy chain) with M103202L889-SK1 (light chain) (antibody, human IgG1, kappa, name in EU numbering)
heavy: B1 heavy with I238N, L297Q, P398K
light: B1 light
notes: as for B1
B7: M103205H795-MY308 (heavy chain) with M103202L889-SK1 (light chain) (antibody, human IgG1, kappa, name in EU numbering)
heavy: B1 heavy with I238T, D270E, L297Q
light: B1 light
notes: as for B1
B8: M103205H795-MY271 (heavy chain) with M103202L889-SK1 (light chain) (antibody, human IgG1, kappa, name in EU numbering)
heavy: B1 heavy with I238V, L297Q, P398K
light: B1 light
notes: as for B1
B9: M103205H795-MY273 (heavy chain) with M103202L889-SK1 (light chain) (antibody, human IgG1, kappa, name in EU numbering)
heavy: B1 heavy with I238L, L297Q, P398K
light: B1 light
notes: as for B1
B10: M103205H795-MY281 (heavy chain) with M103202L889-SK1 (light chain) (antibody, human IgG1, kappa, name in EU numbering)
heavy: B1 heavy with I238Q
light: B1 light
notes: as for B1
B11: M103205H795-MY269 (heavy chain) with M103202L889-SK1 (light chain) (antibody, human IgG1, kappa, name in EU numbering)
heavy: B1 heavy with I238M, L297Q, P398K
light: B1 light
notes: as for B1
B12: M103205H795-MY270 (heavy chain) with M103202L889-SK1 (light chain) (antibody, human IgG1, kappa, name in EU numbering)
heavy: B1 heavy with I238H, L297Q, P398K
light: B1 light
notes: as for B1
B13: M103205H795-MY272 (heavy chain) with M103202L889-SK1 (light chain) (antibody, human IgG1, kappa, name in EU numbering)
heavy: B1 heavy with I238Q, L297Q, P398K
light: B1 light
notes: as for B1
B14: M103205H795-MY452/M103202L889-SK1 (antibody, human IgG1, kappa, name in EU numbering)
heavy: B1 heavy with P234Q, I238T, L297Q
light: B1 light
B15: M103205H795-MY455/M103202L889-SK1 (antibody, human IgG1, kappa, name in EU numbering)
heavy: B1 heavy with P234T, I238T, L297Q
light: B1 light
B16: M103205H795-MY392 / M103202L889-SK1 (antibody, human IgG1, kappa, name in EU numbering)
heavy: B1 heavy with I238T, L297Q, S300L
light: B1 light

Target: T1, human FcγRIIIaV extracellular domain with C-terminal His-tag (human, UniProt P08637 17-208)
T1 construct: also called human FcgRIIIaV; FcgRIIIaV
Test: SPR; KD of SG1 / KD of variant
T1 sequence (P08637 17-208 F176V): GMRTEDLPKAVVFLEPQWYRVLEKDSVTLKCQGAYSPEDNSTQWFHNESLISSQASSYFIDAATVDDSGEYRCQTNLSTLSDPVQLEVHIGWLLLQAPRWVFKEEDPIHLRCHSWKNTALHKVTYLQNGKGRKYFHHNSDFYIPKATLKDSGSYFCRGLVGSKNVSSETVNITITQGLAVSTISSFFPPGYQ

In order of falling “KD fold (SG1 = 1)” value:
1. B3  0.51 fold
2. B4  0.32 fold
3. B7  0.09 fold
4. B6  0.07 fold
5. B1  0.05 fold
6. B2  0.01 fold
7. B5  0.01 fold

Target: T2, cynomolgus monkey FcγRIIa1 extracellular domain with C-terminal His-tag (cynomolgus monkey)
T2 construct: also called cyno FcγRIIa1; FcgRIIa1
T2 chain: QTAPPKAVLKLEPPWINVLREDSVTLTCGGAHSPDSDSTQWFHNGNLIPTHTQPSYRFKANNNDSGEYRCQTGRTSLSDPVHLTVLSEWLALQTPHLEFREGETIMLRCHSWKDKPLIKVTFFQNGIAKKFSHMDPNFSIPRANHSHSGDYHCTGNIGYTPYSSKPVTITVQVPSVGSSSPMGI
Test: SPR; KD of SG1 / KD of variant

In order of rising “KD fold (SG1 = 1)” value:
1. B2  0.9 fold
2. B9  0.9 fold
3. B1  2 fold
4. B8  4.2 fold

Target: T3, human FcγRIIaH extracellular domain with C-terminal His-tag (human, UniProt P12318 34-217)
T3 construct: also called human FcγRIIa (type H); FcgRIIaH
T3 sequence: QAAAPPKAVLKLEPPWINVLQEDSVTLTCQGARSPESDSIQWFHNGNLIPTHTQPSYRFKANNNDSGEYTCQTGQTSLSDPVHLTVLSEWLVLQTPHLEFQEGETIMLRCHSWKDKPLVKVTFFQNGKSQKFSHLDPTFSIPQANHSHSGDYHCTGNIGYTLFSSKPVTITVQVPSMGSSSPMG
Test: SPR; KD of SG1 / KD of variant

In order of rising “KD fold (SG1 = 1)” value:
1. B11  2.8 fold
2. B10  5.3 fold
3. B1  6.3 fold
4. B4  8.5 fold

Target: T4, cynomolgus monkey FcγRIIa2 extracellular domain with C-terminal His-tag (cynomolgus monkey)
T4 construct: also called cyno FcγRIIa2; FcgRIIa2
T4 chain: T2 chain with P95T, T121A, I127K, A128S, K130N, D135N, R142Q
Test: SPR; KD of SG1 / KD of variant

In order of falling “KD fold (SG1 = 1)” value:
1. B6  9.8 fold
2. B1  3 fold
3. B5  1.6 fold
4. B7  1.1 fold

Target: T5, cynomolgus monkey FcγRIIIaS extracellular domain with C-terminal His-tag (cynomolgus monkey, UniProt Q8SPW2 21-206 at identity 1.00))
T5 construct: also called cyno FcγRIIIaS; FcgRIIIaS
T5 chain: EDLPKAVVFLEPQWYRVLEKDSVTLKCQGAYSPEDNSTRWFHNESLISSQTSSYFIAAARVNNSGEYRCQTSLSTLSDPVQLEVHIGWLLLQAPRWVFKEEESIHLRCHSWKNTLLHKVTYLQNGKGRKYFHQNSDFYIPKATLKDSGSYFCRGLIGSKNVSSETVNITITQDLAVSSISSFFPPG
Test: SPR; KD of SG1 / KD of variant

In order of rising “KD fold (SG1 = 1)” value:
1. B5  0.04 fold
2. B2  0.06 fold
3. B1  0.12 fold
4. B7  0.16 fold
5. B6  0.19 fold
6. B9  0.21 fold
7. B12  0.33 fold
8. B8  0.41 fold
9. B10  0.49 fold
10. B4  0.58 fold
11. B13  1.24 fold
12. B3  1.29 fold
13. B11  1.64 fold

Target: T6, human FcγRIIaR extracellular domain with C-terminal His-tag (human, UniProt P12318 34-217)
T6 construct: also called human FcγRIIa (type R); FcgRIIaR
T6 chain: T3 sequence with H134R
Test: SPR; KD of SG1 / KD of variant

In order of rising “KD fold (SG1 = 1)” value:
1. B1  2 fold
2. B12  3 fold
3. B8  4 fold
4. B5  6.9 fold
5. B3  13.1 fold

Target: T7, cynomolgus monkey FcγRIIb extracellular domain with C-terminal His-tag (cynomolgus monkey)
T7 construct: also called cyno FcγRIIb; cynoFcγRIIb
T7 chain: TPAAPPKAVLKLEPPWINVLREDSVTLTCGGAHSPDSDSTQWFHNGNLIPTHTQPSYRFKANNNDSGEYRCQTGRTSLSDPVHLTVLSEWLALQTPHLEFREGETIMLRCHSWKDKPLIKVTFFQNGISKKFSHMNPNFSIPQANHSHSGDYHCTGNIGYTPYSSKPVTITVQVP
Test: SPR; KD of SG1 / KD of variant

In order of rising “KD fold (SG1 = 1)” value:
1. B1  3.1 fold
2. B12  3.6 fold
3. B3  3.9 fold
4. B6  11.3 fold

Target: T8, cynomolgus monkey FcγRIIa3 extracellular domain with C-terminal His-tag (cynomolgus monkey)
T8 construct: also called cyno FcγRIIa3; FcgRIIa3
T8 chain: T2 chain with P95T, T121A, A128S, H133P, D135N
Test: SPR; KD of SG1 / KD of variant

In order of falling “KD fold (SG1 = 1)” value:
1. B8  5.5 fold
2. B1  2.5 fold
3. B7  1.5 fold

Target: T9, human FcγRIIb extracellular domain with C-terminal His-tag (human, UniProt P31994 43-217)
T9 construct: also called human FcgRIIb; FcgRIIb
T9 sequence: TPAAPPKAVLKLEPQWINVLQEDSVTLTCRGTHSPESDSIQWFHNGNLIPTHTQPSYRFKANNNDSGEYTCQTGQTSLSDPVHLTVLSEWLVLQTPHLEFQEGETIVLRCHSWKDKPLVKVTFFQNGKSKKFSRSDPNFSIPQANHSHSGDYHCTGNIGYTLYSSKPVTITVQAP
Test: SPR; KD of SG1 / KD of variant

In order of falling “KD fold (SG1 = 1)” value:
1. B3  6.8 fold
2. B13  3.8 fold
3. B12  1.8 fold
4. B1  1.2 fold

Target: T10, human FcγRIIaH extracellular domain, His-tagged (human, UniProt P12318 34-217)
T10 construct: also called human FcγRIIa (type H); FcgRIIaH
T10 sequence: T3 sequence
Test: SPR (BIACORE), antibody captured, FcγR analyte, 25 C; KD of SG1 divided by KD of variant

In order of falling “KD fold (SG1 = 1)” value:
1. B14  2.9 fold
2. B15  2.7 fold

Target: T11, cynomolgus monkey FcγRIIIaS extracellular domain, His-tagged (cynomolgus monkey, UniProt Q8SPW2 21-206 at identity 1.00))
T11 construct: also called cyno FcγRIIIaS; cynoFcgRIIIaS
T11 chain: T5 chain
Test: as above

In order of rising “KD fold (SG1 = 1)” value:
1. B14  0.2 fold
2. B15  0.2 fold

Target: T12, human FcγRIIIaV extracellular domain with C-terminal His-tag (human, UniProt P08637 17-208)
T12 construct: also called human FcgRIIIaV
Test: SPR (Biacore), antibody captured, FcgR as analyte
Protocol: The kinetic analysis of interactions between these antibodies and FcγR was carried out using BIACORE® T200 or BIACORE® 4000 (GE Healthcare). HBS-EP+ (GE Healthcare) was used as the running buffer, and the measurement temperature was set to 25° C. […] After the measurement, the antibody captured on the chip was washed off by allowing reaction with 10 mM glycine-HCl, pH1.5 and 25 mM NaOH so that the chip was regenerated and used repeatedly. The sensorgrams obtained as measurement results were analyzed by the 1:1 Langmuir binding model using the BIACORE® Evaluation Software to calculate the binding rate constant ka (L/mol/s) and dissociation rate constant kd (1/s), and the dissociation constant KD (mol/L) was calculated from these values. […] Regarding such interactions, KD values were calculated using the following 1:1 binding model described in BIACORE® T100 Software Handbook BR1006-48 Edition AE.
T12 sequence (P08637 17-208 F176V): as the sequence (P08637 17-208 F176V) above

B16 showed a Kd of 9.3 µM.
